Laboratory results reported in article PMC5297747, “Pnserpin: A Novel Serine Protease Inhibitor from Extremophile Pyrobaculum neutrophilum” (International Journal of Molecular Sciences, 2017).

B1: Pnserpin (natural protein, Pyrobaculum neutrophilum, UniProt B1YBN4 1-393, looked up)
chain: MRLWALLPVTLALVVLLIFIVSLKEASTHSPPTSHTSAPAPLESGSYGDFAVSFYKRIALERLRENLVLSPYSVYKAFAMAYAGAAGETREEIGRVFGFGDDVCALAQAGRGVEEAVAAWVQLGFPLREEYERELSCLGAELRRVDFAERSALVEINRWIEEKTRGYVKDLIPTDYPRSQDIRVVLTSALFFNGSWWPLQFGRIGKREFQGVGPVEFMKLDLGSCVPSLRGRVSADLTVVELRFENTDVAMYVIMPKSLEDYVKGLTYEKLKRDITELPDEIVAVTMPLFTAEFKDSLKKVLIDIGIRSAFDKTRANFTRMSPIRIYIDEVFHGAYIKADEKGVVATAATAVVFVPVCAKVGGMEVVIDRPFLFVLADRRDGTIYFIGHVVKP
B2: subtilisin Carlsberg (enzyme, UniProt P00780 106-379, looked up)
chain: AQTVPYGIPLIKADKVQAQGFKGANVKVAVLDTGIQASHPDLNVVGGASFVAGEAYNTDGNGHGTHVAGTVAALDNTTGVLGVAPSVSLYAVKVLNSSGSGSYSGIVSGIEWATTNGMDVINMSLGGASGSTAMKQAVDNAYAKGVVVVAAAGNSGSSGNTNTIGYPAKYDSVIAVGAVDSNSNRASFSSVGAELEVMAPGAGVYSTYPTNTYATLNGTSMASPHVAGAAALILSKHPNLSASQVRNRLSSTATYLGSSFYYGKGLINVEAAAQ
notes: subtilisin Carlsberg; printed molecular weight 27 kD; also called SUC
B3: proteinase k (enzyme, UniProt P06873 106-384, looked up)
chain: AAQTNAPWGLARISSTSPGTSTYYYDESAGQGSCVYVIDTGIEASHPEFEGRAQMVKTYYYSSRDGNGHGTHCAGTVGSRTYGVAKKTQLFGVKVLDDNGSGQYSTIIAGMDFVASDKNNRNCPKGVVASLSLGGGYSSSVNSAAARLQSSGVMVAVAAGNNNADARNYSPASEPSVCTVGASDRYDRRSSFSNYGSVLDIFGPGTSILSTWIGGSTRSISGTSMATPHVAGLAAYLMTLGKTTAASACRYIADTANKGDLSNIPFGTVNLLAYNNYQA
notes: proteinase K; printed molecular weight 28 kD; also called PRK
B4: PnCHT, chymotrypsin-like serine protease of Pyrobaculum neutrophilum (enzyme, UniProt B1YBJ2 1-289, looked up)
chain: MDLSGLVEKVARSVVGVAARGVGAVGEGFGSAFAIDRGVYATAYHVVAQAGEVALITPEGEVADAVVAAADPAEDLAILYSDLYAVPLSLGSALRLRVGQGVVAVGFPLALLDKPTATFGIVSAVGRSLRAGDRFFEYLVQTDAAINPGNSGGPLVNLSGEAVGVCSAVIAGAQGLGFAVPIDLVRIMYQMVKRYGRYVRPALGVYVVALNKALKALYGLPTDRGLLVVDVVPSSPAEEMGIARGDILTKVDGREVANVFELRLLIGEALIQGRTPRIEVIRGGRRIEL
notes: chymotrypsin-like serine protease of Pyrobaculum neutrophilum, GenBank ACB40794.1; full length gene synthesized and cloned into pET-28a(+); printed molecular weight 36 kD; source: E. coli BL21 (DE3) CodonPlus, purified (nickel-chelating chromatography)

Assays:
bovine plasma thrombin = bovine plasma thrombin (bovine); test: cell-based or functional assay
[1] = target: porcine pancreatic elastase (porcine, UniProt P00772 27-266); test: cell-based or functional assay
[2] = target: bovine pancreatic trypsin (bovine); test: cell-based or functional assay
proteinase k = target: B3; test: cell-based or functional assay
subtilisin Carlsberg = target: B2; test: cell-based or functional assay
[3] = target: B4; test: cell-based or functional assay
Pnserpin [4] = target: B1; test: progress curve of protease inhibition; 40 °C; buffer B (100 mM HEPES-NaOH pH 7.5, 200 mM NaCl, 10 mM CaCl2, 0.01% triton X-100, 0.1% glycerol); 1 mM Suc-AAPF-pNA or MeO-SucAAPV-pNA as substrate; various concentrations of Pnserpin; absorption at 410 nm; kass = kunc × (1 + [S]/KM); details: both partners purified
Pnserpin [5] = target: B1; test: progress curve of protease inhibition; 80 °C; buffer B; 1 mM Suc-AAPF-pNA as substrate; various concentrations of Pnserpin; absorption at 410 nm; kass = kunc × (1 + [S]/KM); details: both partners purified

Sequence of bovine pancreatic trypsin (bovine) (P00760 24-246): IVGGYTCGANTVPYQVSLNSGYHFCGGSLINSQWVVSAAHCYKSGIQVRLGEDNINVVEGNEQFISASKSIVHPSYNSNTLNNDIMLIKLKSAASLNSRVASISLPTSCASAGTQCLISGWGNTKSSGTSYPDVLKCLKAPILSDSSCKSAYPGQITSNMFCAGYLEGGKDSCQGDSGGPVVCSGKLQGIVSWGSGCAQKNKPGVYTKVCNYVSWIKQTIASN
Sequence of porcine pancreatic elastase (P00772 27-266): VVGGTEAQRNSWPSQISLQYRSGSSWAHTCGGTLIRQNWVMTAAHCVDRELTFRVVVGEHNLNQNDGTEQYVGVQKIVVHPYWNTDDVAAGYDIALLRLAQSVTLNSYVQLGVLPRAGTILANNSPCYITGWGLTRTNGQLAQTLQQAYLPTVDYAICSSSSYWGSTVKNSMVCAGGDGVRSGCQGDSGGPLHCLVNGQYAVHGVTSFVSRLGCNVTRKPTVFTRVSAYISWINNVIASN

B1
stoichiometry of inhibition (SI), incubation at 20 °C; residual protease activity (bovine plasma thrombin): 21.1
stoichiometry of inhibition (SI), incubation at 30 °C; residual protease activity (bovine plasma thrombin): 15.2
stoichiometry of inhibition (SI), incubation at 40 °C; residual protease activity (bovine plasma thrombin): 12.2
stoichiometry of inhibition (SI), incubation at 50 °C; residual protease activity (bovine plasma thrombin): 9.31
stoichiometry of inhibition (SI), incubation at 20 °C; residual protease activity [1]: 10.1
stoichiometry of inhibition (SI), incubation at 30 °C; residual protease activity [1]: 9.33
stoichiometry of inhibition (SI), incubation at 40 °C; residual protease activity [1]: 7.9
stoichiometry of inhibition (SI), incubation at 50 °C; residual protease activity [1]: 7.41
stoichiometry of inhibition (SI), incubation at 60 °C; residual protease activity [1]: 4.84
stoichiometry of inhibition (SI), incubation at 70 °C; residual protease activity [1]: 2.74
stoichiometry of inhibition (SI), incubation at 20 °C; residual protease activity [2]: 10.2
stoichiometry of inhibition (SI), incubation at 30 °C; residual protease activity [2]: 6.14
stoichiometry of inhibition (SI), incubation at 40 °C; residual protease activity [2]: 5.16
stoichiometry of inhibition (SI), incubation at 50 °C; residual protease activity [2]: 2.53
stoichiometry of inhibition (SI), incubation at 20 °C; residual protease activity (proteinase k): 9.99
stoichiometry of inhibition (SI), incubation at 30 °C; residual protease activity (proteinase k): 7.39
stoichiometry of inhibition (SI), incubation at 40 °C; residual protease activity (proteinase k): 5.99
stoichiometry of inhibition (SI), incubation at 50 °C; residual protease activity (proteinase k): 4.69
stoichiometry of inhibition (SI), incubation at 60 °C; residual protease activity (proteinase k): 2.75
stoichiometry of inhibition (SI), incubation at 70 °C; residual protease activity (proteinase k): 2.28
stoichiometry of inhibition (SI), incubation at 20 °C; residual protease activity (subtilisin Carlsberg): 10
stoichiometry of inhibition (SI), incubation at 30 °C; residual protease activity (subtilisin Carlsberg): 8.76
stoichiometry of inhibition (SI), incubation at 40 °C; residual protease activity (subtilisin Carlsberg): 6.95
stoichiometry of inhibition (SI), incubation at 50 °C; residual protease activity (subtilisin Carlsberg): 5.34
stoichiometry of inhibition (SI), incubation at 60 °C; residual protease activity (subtilisin Carlsberg): 3.97
stoichiometry of inhibition (SI), incubation at 70 °C; residual protease activity (subtilisin Carlsberg): 2.67
stoichiometry of inhibition (SI), incubation at 20 °C; residual protease activity [3]: 32.7
stoichiometry of inhibition (SI), incubation at 40 °C; residual protease activity [3]: 23.9
stoichiometry of inhibition (SI), incubation at 60 °C; residual protease activity [3]: 19.8
stoichiometry of inhibition (SI), incubation at 80 °C; residual protease activity [3]: 11.3
stoichiometry of inhibition (SI), incubation at 100 °C; residual protease activity [3]: 6.82

B2
kon (Pnserpin [4]): 130000 M⁻¹ s⁻¹

B3
kon (Pnserpin [4]): 198000 M⁻¹ s⁻¹

B4
kon (Pnserpin [4]): 39000 M⁻¹ s⁻¹
kon (Pnserpin [5]): 107000 M⁻¹ s⁻¹
